Substitutions are numbered along the chain they refer to.
B1: anti-P-cadherin scFv 153 (parental clone 153), displayed on phage (scFv, V domains shown)
VH: EVQLVQSGAEVKKPGASVKVSCKASGYTFTSYGISWVRQAPGQGLEWMGWISAYNGNTNYAQKLQGRVTMTTDTSTSTAYMELRSLRSDDTAVYYCATIDTANAFGIWGQGTMVTVSS
VL: QSVLTQPPSVSAAPGQKVTISCSGSSSNIGNNYVSWYQQLPGTAPKLLIYDNNKRPSGIPDRFSGSKSGTSATLGITGLQTGDEADYYCGTWDSSLSGVVFGGGTKLTVL
notes: scFv expressed on the surface of phage
B2: anti-P-cadherin scFv 153 alanine-mutant L3.4-Ala (scFv, V domains shown)
VH: B1 VH
VL: B1 VL with D93A
notes: scFv on phage
B3: anti-P-cadherin scFv 153 alanine-mutant L3.5-Ala (scFv, V domains shown)
VH: B1 VH
VL: B1 VL with S94A
notes: scFv on phage
B4: anti-P-cadherin scFv 153 alanine-mutant L3.6-Ala (scFv, V domains shown)
VH: B1 VH
VL: B1 VL with S95A
notes: scFv on phage
B5: anti-P-cadherin scFv 153 alanine-mutant L3.7-Ala (scFv, V domains shown)
VH: B1 VH
VL: B1 VL with L96A
notes: scFv on phage
B6: anti-P-cadherin scFv 153 alanine-mutant L3.8-Ala (scFv, V domains shown)
VH: B1 VH
VL: B1 VL with S97A
notes: scFv on phage
B7: anti-P-cadherin scFv 153 alanine-mutant L3.9-Ala (scFv, V domains shown)
VH: B1 VH
VL: B1 VL with G98A
notes: scFv on phage
B8: anti-P-cadherin scFv 153 alanine-mutant L3.10-Ala (scFv, V domains shown)
VH: B1 VH
VL: B1 VL with V99A
notes: scFv on phage
B9: anti-P-cadherin scFv 153 alanine-mutant L3.11-Ala (scFv, V domains shown)
VH: B1 VH
VL: B1 VL with V100A
notes: scFv on phage
B10: 33 EK-DART (P-CAD 33 x CD3-2) (bispecific antibody)
chain 1: QSVLTQPPSVSAAPGQKVTISCSGSSSNIGNNYVSWYQQLPGTAPKLLIYDNNKRPSGIPDRFSGSKSGTSATLGITGLQTGDEADYYCGTWDSSLSAYVFGTGTKVTVLGGGSGGGGEVQLVESGGGLVQPGGSLRLSCAASGFTFNTYAMNWVRQAPGKGLEWVARIRSKYNNYATYYADSVKDRFTISRDDSKNSLYLQMNSLKTEDTAVYYCVRHGNFGNSYVSWFAYWGQGTLVTVSSGGCGGGKVAALKEKVAALKEKVAALKEKVAALKE
chain 2: QAVVTQEPSLTVSPGGTVTLTCRSSTGAVTTSNYANWVQQKPGQAPRGLIGGTNKRAPWTPARFSGSLLGGKAALTITGAQAEDEADYYCALWYSNLWVFGGGTKLTVLGGGGSGGGGQMQLVQSGAEVKKPGASVKVSCKASGYTFTSYGISWVRQAPGQGLEWMGWISAYNGNTNYAQKLQGRVTMTTDTSTSTAYMELRSLRSDDTAVYYCALIGSGVAFDIWGQGTMVTVSSGGCGGGEVAALEKEVAALEKEVAALEKEVAALEK
B11: 34 EK-DART (P-CAD 34 x CD3-2) (bispecific antibody)
chain 1: B10 chain 1 with L4V, Y99W, T103G, V107L
chain 2: B10 chain 2 with Q119E, M120V, L216T, G218D, S219T, G220A, V221S
B12: 154 EK-DART (bispecific antibody)
chain 1: B10 chain 1 with A98S
chain 2: B10 chain 2 with Q119E, M120V, L216T, G218D, S219T, G220A, V221T
B13: 165 EK-DART (bispecific antibody)
chain 1: B10 chain 1 with T81A
chain 2: B10 chain 2 with Q119E, M120V, L216T, G218D, S219T, G220A, V221N
B14: 177 EK-DART (bispecific antibody)
chain 1: B10 chain 1
chain 2: B10 chain 2 with Q119E, M120V, L216T, G218D, S219T, G220A, V221N
notes: the K-coil chain is assembled from parts with CD3-2 VH
B15: 178 EK-DART (bispecific antibody)
chain 1: B10 chain 1 with Y99V, T103G, V107L
chain 2: B10 chain 2 with Q119E, M120V, L216T, G218D, S219T, G220A, V221N
B16: 179 EK-DART (bispecific antibody)
chain 1: B10 chain 1 with S26R, N52S, A98S, Y99W, T103G, V107L
chain 2: B10 chain 2 with Q119E, M120V, L216T, G218D, S219T, G220A, V221N
B17: 180 EK-DART (bispecific antibody)
chain 1: B10 chain 1 with L4V
chain 2: B10 chain 2 with Q119E, M120V, L216T, G218D, S219T, G220A, V221N
notes: also called P-CAD 180 EK-DART (CD3-2)
B18: 153 EK-DART (P-CAD 153 x CD3-2) (bispecific antibody)
chain 1: B10 chain 1 with A98G, Y99V, T103G, V107L
chain 2: B10 chain 2 with Q119E, M120V, L216T, G218D, S219T, G220A, V221N, D224G
B19: 154 EK-DART (P-CAD 154 x CD3-2) (bispecific antibody)
chain 1: B10 chain 1 with A98S
chain 2: B10 chain 2 with Q119E, M120V, L216T, G218D, S219T, G220A, V221T
B20: 165 EK-DART (P-CAD 165 x CD3-2) (bispecific antibody)
chain 1: B10 chain 1 with T81A
chain 2: B10 chain 2 with Q119E, M120V, L216T, G218D, S219T, G220A, V221N
B21: 177 EK-DART (P-CAD 177 x CD3-2) (bispecific antibody)
chain 1: B10 chain 1
chain 2: B10 chain 2 with Q119E, M120V, L216T, G218D, S219T, G220A, V221N
B22: 178 EK-DART (P-CAD 178 x CD3-2) (bispecific antibody)
chain 1: B10 chain 1 with Y99V, T103G, V107L
chain 2: B10 chain 2 with Q119E, M120V, L216T, G218D, S219T, G220A, V221N
B23: 179 EK-DART (P-CAD 179 x CD3-2) (bispecific antibody)
chain 1: B10 chain 1 with S26R, N52S, A98S, Y99W, T103G, V107L
chain 2: B10 chain 2 with Q119E, M120V, L216T, G218D, S219T, G220A, V221N
B24: 180 EK-DART (P-CAD 180 x CD3-2) (bispecific antibody)
chain 1: B10 chain 1 with L4V
chain 2: B10 chain 2 with Q119E, M120V, L216T, G218D, S219T, G220A, V221N

biological target: T1, P-cadherin-ECD1-3-Fc protein (human P-cadherin-Fc) (human, UniProt P22223 108-440); test: phage scFv ELISA, coated P-cadherin-ECD1-3-Fc
T1 construct: Construct was expressed with signal peptide and pro-peptide (PACE co-transfected to process the propeptide); not shown: hinge and CH2 and CH3 domains of human IgG1
T1 sequence (P22223 108-440): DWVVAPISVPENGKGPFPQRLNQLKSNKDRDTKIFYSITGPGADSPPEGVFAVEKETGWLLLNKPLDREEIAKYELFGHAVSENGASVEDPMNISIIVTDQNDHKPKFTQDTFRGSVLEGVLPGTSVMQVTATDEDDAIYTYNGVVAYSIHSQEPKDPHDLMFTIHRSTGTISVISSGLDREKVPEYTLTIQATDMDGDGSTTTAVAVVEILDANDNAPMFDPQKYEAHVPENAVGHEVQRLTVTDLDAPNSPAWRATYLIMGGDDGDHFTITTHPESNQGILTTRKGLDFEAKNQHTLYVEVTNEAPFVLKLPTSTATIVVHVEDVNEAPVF
Protocol: ScFvs may be expressed on the surface of a phage particle. To prepare phage expressing scFv on their surface, 96-deep well plates containing 1 mL 2× TY media with 2% glucose/100 μg/mL ampicillin were inoculated with 0.5-1 μL from thawed glycerol stocks (one clone per well) using the QPix™2 Colony picker (Molecular Devices, Sunnyvale Calif.) and grown at 37° C. (900 rpm) for ˜4 hours. Next, 5 μL of a 1:29 dilution of helper phage (8.3×10¹³ pfu) was added and the plates and incubated for a further 30 minutes at 37° C. with no shaking then 1 hour at 300 rpm. Plates were centrifuged and the media was replaced with a kanamycin/non-glucose containing media (2× TY with 50 μg/mL kanamycin and 100 μg/mL ampicillin). Plates were grown overnight at 25° C. (900 rpm), and phage were harvested in the supernatant following centrifugation.
(§1) P-cadherin-ECD1-3-Fc protein or negative control protein was coated overnight at 4° C. on 96-well Nunc Maxisorp® plates (Thermo Fisher Scientific, Madison, Conn.) at a concentration of 2 μg/mL in PBS+Ca²⁺ and Mg²⁺. Plates were washed three times using PBS+Ca²⁺ and Mg²⁺ and blocked for 1 hour at room temperature in 3% milk/PBS+Ca²⁺ and Mg²⁺. Phage samples prepared as described above were added to the blocked plates for 1 hour at room temperature. Plates were washed three times with PBS+Ca²⁺ and Mg²⁺ prior to the addition of secondary antibody (anti M13-HRP 1:2000, GE Healthcare, Piscataway, N.J.). Plates were incubated for a further 1 hour at room temperature and washed six times with PBS+Ca²⁺ and Mg²⁺. Signal was developed using TMB (SurModics, Eden Prairie, Minn.), the reaction stopped with H₂SO₄ and the absorbance read at 450 nm on an EnVision® plate reader (Perkin Elmer, Waltham, Mass.).

Binder | % of binding of Clone #153 to human P-cadherin-Fc [%] | Human P-cadherin-Fc binding (OD450) | Z Score
B1 | 100 | 1.32 | 0
B2 | 70 | 0.92 | -0.6
B3 | 163 | 2.16 | 1.3
B4 | 173 | 2.29 | 1.5
B5 | 173 | 2.29 | 1.6
B6 | 173 | 2.28 | 1.5
B7 | 166 | 2.19 | 1.4
B8 | 141 | 1.86 | 0.9
B9 | 104 | 1.38 | 0.1

biological target: T2, human P-cadherin, cell surface expressed (human, UniProt P22223 108-829); test: cell-based or functional assay
T2 sequence (P22223 108-829): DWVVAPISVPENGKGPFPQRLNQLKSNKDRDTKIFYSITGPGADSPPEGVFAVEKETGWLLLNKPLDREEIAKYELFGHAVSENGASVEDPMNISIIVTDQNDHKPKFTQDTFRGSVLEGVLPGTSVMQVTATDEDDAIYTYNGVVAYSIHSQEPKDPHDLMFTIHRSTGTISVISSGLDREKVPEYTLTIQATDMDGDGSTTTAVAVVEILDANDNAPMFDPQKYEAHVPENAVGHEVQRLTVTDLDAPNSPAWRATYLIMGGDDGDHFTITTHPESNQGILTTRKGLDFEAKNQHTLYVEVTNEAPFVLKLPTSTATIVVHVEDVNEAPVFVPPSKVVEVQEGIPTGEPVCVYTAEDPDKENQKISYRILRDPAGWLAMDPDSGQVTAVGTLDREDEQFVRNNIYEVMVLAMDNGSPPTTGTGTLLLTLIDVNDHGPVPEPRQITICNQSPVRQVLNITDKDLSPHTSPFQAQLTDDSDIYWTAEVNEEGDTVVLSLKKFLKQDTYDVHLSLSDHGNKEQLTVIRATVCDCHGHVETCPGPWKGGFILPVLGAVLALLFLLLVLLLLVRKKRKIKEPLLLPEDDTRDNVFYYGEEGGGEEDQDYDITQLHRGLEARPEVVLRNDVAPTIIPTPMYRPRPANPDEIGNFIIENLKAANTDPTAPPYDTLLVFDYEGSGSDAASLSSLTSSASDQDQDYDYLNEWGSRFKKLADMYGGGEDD

Binder | T cell directed cytotoxicity EC50, CHO-CDh3 (24 h), LDH release, human PBMC E:T 30:1 [pM] | T cell directed cytotoxicity EC50, H1650 (24 h), LDH release, human PBMC E:T 30:1 [pM] | T cell directed cytotoxicity EC50, H1650 (40 h), LDH release, human PBMC E:T 30:1 [pM]
B10 | 309 | 4100 | 1120
B11 | 736 | 5600 | 1600

biological target: T1, P-cadherin-ECD1-3-Fc protein (human …); test: phage scFv ELISA, coated P-cadherin-ECD1-3-Fc; remark: another data set of the same source
Protocol: as §1

Binder | % of binding of Clone #153 to human P-cadherin-Fc [%] | Human P-cadherin-Fc binding (OD450) | Z Score
B1 | 100 | 1.32 | 0

biological target: T3, cynomolgus monkey P-cadherin ECD (cynomolgus monkey); test: SPR Biacore
T3 construct: extracellular domain; also called cyno P-cadherin ECD; Cyno P-cadherin
Protocol: Binding affinity of EK-DART proteins to P-cadherin and CD3 was analyzed by SPR using a BIACORE® 3000 biosensor (GE Healthcare). The antigens huCD3εδ and either human P-cadherin-Fc or human/cynomolgus monkey/murine P-cadherin-ECD were immobilized on the CM-5 sensor chip by amine coupling kit as recommended by the manufacturer. […] All EK-DART proteins in Tables 15 and 16 comprise CD3-2.
All EK-DART proteins in Table 17 comprise CD3-2.

Binder | Kd [pM] | koff [s⁻¹] | kon [M⁻¹ s⁻¹]
B12 | 3930 | 0.0039 | 1.04e+06
B13 | 370 | 0.000309 | 834000
B14 | 483 | 0.000383 | 802000
B15 | 1310 | 0.000216 | 167000
B16 | 4160 | 0.00458 | 1.11e+06
B17 | 966 | 0.000744 | 771000

biological target: T2, human P-cadherin, cell surface expressed; test: cell-based or functional assay; remark: another data set of the same source

Binder | T cell directed cytotoxicity EC50, H1650 LDH 24 hr 30:1 D41183 [pM] | T cell directed cytotoxicity EC50, HCT116 Luc 48 hr 10:1 D43905 [pM]
B18 | 0.8 | 0.5
B19 | 10.7 | 16.6
B20 | 1.1 | 1.5
B21 | 1.1 | 0.7
B22 | 0.8 | 1.8
B23 | 17.8 | 43.2
B24 | 1.6 | 1.8

Source: patent US20160002357A1 (Pfizer, published 2016)
